Reference: US20230192896A1 (BIOVERATIV THERAPEUTICS, published 2023)

Target: T1, non-activatable Factor X (FXn) (Homo sapiens (Human), UniProt P00742 41-488, single biotin on the C-terminal BioTag)
T1 construct: also called BIIB-FX-015
Assay: BLI; class meaning: paragraph 285

Binder	binding result
BIIB-12-1312 (antibody, V domains shown, IgG) VH: QVQLVESGGGVVQPGRSLRLSCAASGFTFSSYGMHWVRQAPGKGLEWVAVISYDGSNKYYADSVKGRFTISRDNSKNTLYLQMNSLRAEDTAVYYCAKGMGHWIDYWGQGTLVTVSS VL: DIQMTQSPSSVSASVGDRVTITCRASQGISSWLAWYQQKPGKAPKLLIYAASSLQSGVPSRFSGSGSGTDFTLTISSLQPEDFATYYCQQASSFPPTFGGGTKVEIK	binds
BIIB-12-1323 (antibody, V domains shown, IgG) VH: QVQLVQSGAEVKKPGASVKVSCKASGYTFTSYYIHWVRQAPGQGLEWMGIINPSGGSTSYAQKFQGRVTMTRDTSTSTVYMELSSLRSEDTAVYYCARGRRFPRGLDYWGQGTLVTVSS VL: DIQMTQSPSSVSASVGDRVTITCRASQGISSWLAWYQQKPGKAPKLLIYAASSLQSGVPSRFSGSGSGTDFTLTISSLQPEDFATYYCQQANIFPFTFGGGTKVEIK	binds
BIIB-12-1332 (antibody, V domains shown, IgG) VH: QVQLVQSGAEVKKPGASVKVSCKASGYTFTSYYMSWVRQAPGQGLEWMGIINPSGGSTSYAQKFQGRVTMTRDTSTSTVYMELSSLRSEDTAVYYCARLGRKSRVFDIWGQGTMVTVSS VL: DIQMTQSPSSVSASVGDRVTITCRASQGISSWLAWYQQKPGKAPKLLIYAASSLQSGVPSRFSGSGSGTDFTLTISSLQPEDFATYYCQQVNSFPLTFGGGTKVEFK	binds
BIIB-12-1317 (antibody, V domains shown, IgG) VH: QVQLVESGGGVVQPGRSLRLSCAASGFTFSSYGMHWVRQAPGKGLEWVAVISYDGSNKYYADSVKGRFTISRDNSKNTLYLQMNSLRAEDTAVYYCARGVGGHDTRWGQGTLVTVSS VL: DIQMTQSPSSVSASVGDRVTITCRASQGISSWLAWYQQKPGKAPKLLIYAASSLQSGVPSRFSGSGSGTDFTLTISSLQPEDFATYYCQQRHSLPPTFGGGTKVEIK	binds
BIIB-12-1319 (antibody, V domains shown, IgG) VH: QVQLVESGGGVVQPGRSLRLSCAASGFTFSSYGMHWVRQAPGKGLEWVAVISYDGSNKYYADSVKGRFTISRDNSKNTLYLQMNSLRAEDTAVYYCARTGYHRSVYYWGQGTLVTVSS VL: EIVMTQSPATLSVSPGERATLSCRASQSVSSNLAWYQQKPGQAPRLLIYGASTRATGIPARFSGSGSGTEFTLTISSLQSEDFAVYYCQQASNFPPTFGGGTKVEI	binds
BIIB-12-1330 (antibody, V domains shown, IgG) VH: QVQLVESGGGVVQPGRSLRLSCAASGFTFSSYGMHWVRQAPGKGLEWVAVISYDGSNKYYADSVKGRFTISRDNSKNTLYLQMNSLRAEDTAVYYCAKGGSARWINIWGQGTTVTVSS VL: not shown	binds
BIIB-12-1325 (antibody, V domains shown, IgG) VH: QVQLVQSGAEVKKPGASVKVSCKASGYTFTSYYMVWVRQAPGQGLEWMGIINPSGGSTSYAQKFQGRVTMTRDTSTSTVYMELSSLRSEDTAVYYCARGGRYMLDPWGQGTLVTVSS VL: DIQMTQSPSTLSASVGDRVTITCRASQSISSWLAWYQQKPGKAPKLLIYKASSLESGVPSRFSGSGSGTEFTLTISSLQPDDFATYYCQQSNRYPRTFGGGTKVEIK	binds
BIIB-12-1326 (antibody, V domains shown, IgG) VH: not shown VL: EIVLTQSPGTLSLSPGERATLSCRASQSVRSSYLAWYQQKPGQAPRLLIYGASSRATGIPDRFSGSGSGTDFTLTISRLEPEDFAVYYCQQAYSSPLTFGGGTKVEIK	binds
BIIB-12-1333 (antibody, V domains shown, IgG) VH: QVQLVQSGAEVKKPGASVKVSCKASGYTFTSYYMVWVRQAPGQGLEWMGIINPSGGSTSYAQKFQGRVTMTRDTSTSTVYMELSSLRSEDTAVYYCARVSRRDYPLAFDIWGQGTMVTVSS VL: EIVMTQSPATLSVSPGERATLSCRASQSVSSNLAWYQQKPGQAPRLLIYGASTRATGIPARFSGSGSGTEFTLTISSLQSEDFAVYYCQQVNTWPTFGGGTKVEIK	binds
BIIB-12-1318 (antibody, V domains shown, IgG) VH: QVQLVESGGGVVQPGRSLRLSCAASGFTFSSYGMHWVRQAPGKGLEWVAVISYDGSNKYYADSVKGRFTISRDNSKNTLYLQMNSLRAEDTAVYYCARKGDYRSGSYSGRAFGIWGQGTMVTVSS VL: EIVLTQSPATLSLSPGERATLSCRASQSVSSYLAWYQQKPGQAPRLLIYDASNRATGIPARFSGSGSGTDFTLTISSLEPEDFAVYYCQQLNNWPPTFGGGTKVEIK	binds
BIIB-12-1315 (antibody, V domains shown, IgG) VH: QVQLVQSGAEVKKPGASVKVSCKASGYTFTSYYMVWVRQAPGQGLEWMGIINPSGGSTSYAQKFQGRVTMTRDTSTSTVYMELSSLRSEDTAVYYCARGRPSSKRVTYFDYWGQGTLVTVSS VL: EIVMTQSPATLSVSPGERATLSCRASQSVSSNLAWYQQKPGQAPRLLIYGASTRATGIPARFSGSGSGTEFTLTISSLQSEDFAVYYCQQVFNWPPWTFGGGTKVEIK	binds

Further lines, results first:

binding result	Binder
binds	BIIB-12-1324 (antibody, V domains shown, IgG) VH: QVQLVQSGAEVKKPGASVKVSCKASGYTFTSYYMVWVRQAPGQGLEWMGIINPSGGSTSYAQKFQGRVTMTRDTSTSTVYMELSSLRSEDTAVYYCARLPRYSKRGLDVWGQGTMVTVSS VL: EIVMTQSPATLSLSPGERATLSCRASQSVSSYLAWYQQKPGQAPRLLIYDSSNRATGIPARFSGSGSGTDFTLTISSLEPEDFAVYYCQQLVSWPTFGGGTKVEIK
binds	BIIB-12-1322 (antibody, V domains shown, IgG) VH: QVQLVQSGAEVKKPGASVKVSCKASGYTFTSYYIHWVRQAPGQGLEWMGIINPSGGSTSYAQKFQGRVTMTRDTSTSTVYMELSSLRSEDTAVYYCARSRQRHRGDWYFDLWGRGTLVTVSS VL: not shown
binds	BIIB-12-1313 (antibody, V domains shown, IgG) VH: QVQLVESGGGVVQPGRSLRLSCAASGFTFSSYGMHWVRQAPGKGLEWVAVISYDGSNKYYADSVKGRFTISRDNSKNTLYLQMNSLRAEDTAVYYCAKGTGWWRYWGQGTLVTVSS VL: EIVMTQSPATLSVSPGERATLSCRASQSVSSNLAWYQQKPGQAPRLLIYGASTRATGIPARFSGSGSGTEFTLTISSLQSEDFAVYYCQQHNHLPITFGGGTKVEIK
binds	BIIB-12-1327 (antibody, V domains shown, IgG) VH: QVQLVESGGGVVQPGRSLRLSCAASGFTFSSYGMHWVRQAPGKGLEWVAVISYDGSNKYYADSVKGRFTISRDNSKNTLYLQMNSLRAEDTAVYYCAKLGLARGGGYGMDVWGQGTTVTVSS VL: EIVMTQSPATQYVSPGERATLSCRASQSVSSNLAWYQQKPGQAPRLLIYGASTRATGIPARFSGSGSGTEFTLTISSLQSEDFAVYYCQQYHNFPPTFGGGTKVEIK
binds	BIIB-12-1328 (antibody, V domains shown, IgG) VH: QLQLQESGPGLVKPSETLSLTCTVSGGSISSSSYYWGWIRQPPGKGLEWIGSIYYSGSTYYNPSLKSRVTISVDTSKNQFSLKLSSVTAADTAVYYCARDPAYYSGHDYYYYGMDVWGQGTTVTVSS VL: EIVMTQSPATLSVSPGERATLSCRASQSVSSNLAWYQQKPGQAPRLLIYGASTRATGIPARFSGSGSGTEFTLTISSLQSEDFAVYYCQQPNSYPLTFGGGTKVEIK
binds	BIIB-12-1329 (antibody, V domains shown, IgG) VH: QVQLVESGGGVVQPGRSLRLSCAASGFTFSSYGMHWVRQAPGKGLEWVAVISYDGSNKYYADSVKGRFTISRDNSKNTLYLQMNSLRAEDTAVYYCARGGAGSRYFQHWGQGTLVTVSS VL: EIVMTQSPATKSVSPGERATLSCRASQSVSSNLAWYQQKPGQAPRLLIYSASTRATGIPARFSGSGSGTEFTLTISSLQSEDFAVYYCQQVFNWPPTFGGGTKVKIK

Target: T2, FIXa-SM (FIXa+EGR-CMK) (human, UniProt P00740 47-191; P00740 227-461, EGR-CMK (L-Glu-Gly-Arg chloromethyl ketone) covalently bound to the active site)
T2 construct: BLI antigen bought from Haematologic Technologies (HCIXA-EGR); also called FIXa with substrate mimic
Assay: BLI; class meaning: paragraph 914

binding result	Binder
binds	BIIB-9-581 (antibody, V domains shown, IgG) VH: QVQLVQSGAEVKKPGASVKVSCKASGYTFTSYYMHWVRQAPGQGLEWMGIINPSGGSTSYAQKFQGRVTMTRDTSTSTVYMELSSLRSEDTAVYYCARDPLYYREGYVFDYWGQGTLVTVSS VL: DIQMTQSPSSLSASVGDRVTITCRASQSISSYLNWYQQKPGKAPKLLIYAASSLQSGVPSRFSGSGSGTDFTLTISSLQPEDFATYYCQQSDLFPFTFGGGTKVEIK
binds	BIIB-9-585 (antibody, V domains shown, IgG) VH: QLQLQESGPGLVKPSETLSLTCTVSGGSISSSDYYWGWIRQPPGKGLEWIGSIYYSGSTYYNPSLKSRVTISVDTSKNQFSLKLSSVTAADTAVYYCAREVGTYYYGLDFWFDPWGQGTLVTVSS VL: DIQMTQSPSSVSASVGDRVTITCRASQGISSWLAWYQQKPGKAPKLLIYAASSLQSGVPSRFSGSGSGTDFTLTISSLQPEDFATYYCQQANSYPITFGGGTKVEIK
binds	BIIB-9-587 (antibody, V domains shown, IgG) VH: QVQLVQSGAEVKKPGASVKVSCKASGYTFTSYYMHWVRQAPGQGLEWMGIINPSGGSTSYAQKFQGRVTMTRDTSTSTVYMELSSLRSEDTAVYYCARGPPGYEYYMDVWGKGTTVTVSS VL: DIQMTQSPSSVSASVGDRVTITCRASQGISSWLAWYQQKPGKAPKLLIYAASSLQSGVPSRFSGSGSGTDFTLTISSLQPEDFATYYCQQADSFPFTFGGGTKVEIK
binds	BIIB-9-606 (antibody, V domains shown, IgG) VH: QVQLVQSGAEVKKPGASVKVSCKASGYTFTSYYMHWVRQAPGQGLEWMGIINPSGGSTSYAQKFQGRVTMTRDTSTSTVYMELSSLRSEDTAVYYCARTKWSSSPYGMDVWGQGTTVTVSS VL: not shown
binds	BIIB-9-582 (antibody, V domains shown, IgG) VH: QVQLVQSGAEVKKPGASVKVSCKASGYTFTSYYMVWVRQAPGQGLEWMGIINPSGGSTSYAQKFQGRVTMTRDTSTSTVYMELSSLRSEDTAVYYCARAPTYFYSYGMDVWGQGTTVTVSS VL: not shown
binds	BIIB-9-569 (antibody, V domains shown, IgG) VH: QVQLVQSGAEVKKPGASVKVSCKASGYTFTSYYMHWVRQAPGQGLEWMGIINPSGGSTSYAQKFQGRVTMTRDTSTSTVYMELSSLRSEDTAVYYCARDGSGYSPYSFDPWGQGTLVTVSS VL: DIQMTQSPSSLSASVGDRVTITCQASQDISNYLNWYQQKPGKAPKLLIYDASNLATGVPSRFSGSGSGTDFTFTISSLQPEDIATYYCQQADDFPFTFGGGTKVEIK
